Reference: a protein production outcome set (Wang et al. 2014)

Assay: label from the status in PepcDB records

Sequence | protein production
MNNRDLLLGIFVMIIWGLNFSVIKLGVSEIDPLLLTALRFSFAVIPAVFFVKRPQVKWRYLMGYGLVFAIGVWGMGSWSIQAGLSAGMASVLLQMNVVISLLVGYFVLKETVAPIKVVGSVVAILGLALSVSVTDGSVTTLGLVFILIAALSWSITSILVKKAGTKEIFAFSIWGMLFAPLPLFALAFLRGGPEQLQTLNSLANGSVIFSVLFQAYPVTLFGYWVWNRLLVKYPLSTVAPLTFLVPIFGLLGSAIFYQEQIGLVKALACLLIIVGLIIGLIKTEKLKAYLHQPKSAKQVV | failed
MTSPFHRLCRTTLAAGFLFGMASAALAVGDSNDDTNPPPKTETTKTCTGGKVWDKQRKECVTPKKNSFNDDDLYKFAREFAYAGQYENAITVLNLARNQNDPRILNYLGYANRKAGRMELGMSYYRKALQADENYILARSYMGMALVEQGDIQGARVQLVEIRDRGGEDTWAYRALLQSLNGYRTY | failed
MNVVIVRYGEIGTKSRQTRSWFEKILMNNIREALVTEEVPYKEIFSRHGRIIVKTNSPKEAANVLVRVFGIVSISPAMEVEASLEKINRTALLMFRKKAKEVGKERPKFRVTARRITKEFPLDSLEIQAKVGEYILNNENCEVDLKNYDIEIGIEIMQGKAYIYTEKIKGWGGLPIGTEGRMIGILHDELSALAIFLMMKRGVEVIPVYIGKDDKNLEKVRSLWNLLKRYSYGSKGFLVVAESFDRVLKLIRDFGVKGVIKGLRPNDLNSEVSEITEDFKMFPVPVYYPLIALPEEYIKSVKERLGL | not failed
MARKVILFIAMSIDNYIADDQGAVDWLEKNVHGTESDDSYEKMYSKIDTVIMGRTTYEQVTQKLSPEKYVYADRQTYIVTSHLGEDTDKIKYWKQSPVELVKRIQKEKGKDVWIVGGAKLIDPLVQANLIDTYILTTVPIFLGSGIRLFDRLEEQVPVRLIDVYQKNELVYSIYQRG | not failed
MANIVFIATSLDGYIADKRGKLDWLHSVPNPNNVDTGFVALMERVDGLVMGRNTLDMVLSFDCDWPYSKPVFVLSNTMTEVPQGYEDKVFLVKGKLVDIIADLNAKGFNELYIDGGVTIQNFLKEDLIDEMVITRFPILLGGGVPLFGELESSLSFNVIKSEVVLDSLTQTTYHRKRA | not failed
MDPFDAGQAQRGNGSTESSGREDREGEEAQWVGVLTHAVLAADDPANLGDSAPAEGGHDQMLEEWAAEEGQNPLEDRQEAVRRVNAWNQGELNLAMLRLTSLPPLPAGLHSLDASFNRLTSLPETLPDALNSLNVNGNQLVSLPALPAGLALLDVWSNRLTSLPETLPAALEGLNVGNNQLTSLPEALPARLESLDVSVNQLTSLPETLPASLGSLDVGVNQLTSLPETLPTSLGRLYLNDNQLTSLPTGLLTQLGAAAEVVVSGNPLPQEMLMNLDTIQSTDGYAGPRVVFDLSETHEDQWEDAAVAPFPLETVAAESLPEAVADWLNGDPKEGDPEVVAKWQSFAEEPGAQQYADFLNGLRNTVNSGNEGFQQGVANDLRQAAANPQLRAQYFQLALDANESCADRRTLTWNGMQTARLIANVENGLYDNNEGVAALVDLGRVMFRLEALGGIAREKVQSLRTGGTINNVDEIEVYLAYQATLRERLGLQHIAPDMNYFYDSHLTEEDIDRAETSVRSKEATGFADYLATDWKPWDDVVLRIEPEHHATMEEKLADALEEEFPGRLKQKLVEAGLIGAEADVVADAEREFGPQVSKDIAREIKGALRDTVLNKRGLSL | failed
MGSDISQFSASPAARQHTWTLAAYRYMARKRLGGKTAIDLKSVATKSWDIAPGEATVSPPAIFLPGQLDRVTGWEGKRFYPYVHPAQTMAGGIHTLQGPTRGYLIKDVWLVDGALYKGKASHWLSQKPSTFPTILIDHEIDRAAIYCTLNGNAWFGTWLMEDCPTYALACNEGIPVTTAPSARYPLFTQAPAYEDWLDMKPLRLRSAFFRELVLFDDQSNNRSRHARYRAMGDKLLSHVTHTQHPGVFLLRGGDGDLRLLRNELELAEHLRTTRGFRIVNPLKSDVPSIVAACAGAKVVIGVEGSQLVHGVNVLQAGGCLLTLQPPNRFVSYYKYLTDRDHQHFGFVVGLPEGDGFRIDIDEVERTLDLFPR | failed
MALSADIVGMHYRYPDHYEVEREKIREYAVAVQNDDAWYFEEDGAAELGYKGLLAPLTFICVFGYKAQAAFFKHANIATAEAQIVQVDQVLKFEKPIVAGDKLYCDVYVDSVREAHGTQIIVTKNIVTNEEGDLVQETYTTLAGRAGLEHHHHHH | not failed
MRITHLGHSCILVEAAGQRILVDPGNLSRSWRGLTDLDAILVTHRHPDHVDPEHIGALVDANSGAVVRAEEGACHEIPALDADPVAPGDVLQIGEVRIEAVGGRHAVIHRDLEPIGNVGYLIGEGLGTILYHPGDELDETPRGVDVLACPAHAPWAAMKETVDFARSVGARHGFLIHEGLLNGRGWQLSFDRHQEMVPTTFHDLRNGQPWEVPQDLEHHHHHH | failed
KVVFAKEQPAHREVQAEAGASATLSCEVAQAQTEVTWYKDGKKLSSSSKVRVEAVGCTRRLVVQQAGQAEAGEYSCEAGGQQLSFRLQVAGQCFG | not failed
MAEHGETTEDGDSEIDYEFLAELSALLGVDAVQLAKSQEEEEHKERMKMKKGFNSQMRSEAKRLKTFETYDTFRSWTPQEMAAAGFYHTGVRLGVQCFCCSLILFGNSLRKLPIERHKKLRPECEFLLGKDVGNIGKYDIRVKRPEKMLRGGKARYHEEEARLESFEDWPFYAHGTSPRVLSAAGFVFTGKRDTVQCFSCGGSLGNWEEGDDPWKEHAKWFPKCEFLQSKISSEEIAQYIQGYGGFVHVTGEHFVNSWVRRELPMVSGRKDIVQCFSCGGCMENWAEGDDPIQEHNKFFPK | failed
MFCVSLILQTLKQPNVHRQVLAIALPMVLSNITVPLLGLVDAAVIGHLEHAWYLGGVALGSTMISVTFWLLGFLRMSTTGLTAQAHGAQNSQQLARVLLQGSVIALGLAALFLLFHRPVAELIFHFSDASSEVKTYAEAYFYIRAWSAPAALLNFVLLGWLLGTQNARAPMWMVIITNLTNIVLDLLLVLGLGLKVEGAAIASVIADYAGLLFGLLCVGRYWRQHQLPAPFSFIPSLTKELSRLVALNRDIFLRSLCLQAVFSFMTFQGAALGDDIVAANAVLMSFLMMISYGMDGFAYAMEAMVGKAIGAKDDRQLRTAMISSTFWATMICLLLSLIFLGFGSDLIQMITNIPSVQATAEHYLPWLVAMPLIAVWCFLLDGVFIGATKGKEMRNSMAVSAVAFFAIYGFMTHYGNHALWLAMLSFMALRGFTLGATFYTQWRAGTFLPARFSI | failed
MDLRAIAMGLAFAFMWSSAFSSARIIVADASPLFSLACRFLISGLLGVIIARAMGQTWRLTRNQWKATIVFGICQNALYLGLNFYAMQTVEASVAAIIASTMPLLVALASWGLFGERLPALGIAGLLAGFLGVALIMGARIGAGVDLFGVLLCGLGALALAAATLALRGATSGGNFMMVVGLQMLVGSAVLFLATPIFETVHVTPTLPLALAFAYTTLVPGLTATFVWVLLLNRIGAIRAATFHFLNPVFGVAIAAALLGERLGALDAIGVAITTAGILAVQLSRQASARKP | failed
MHPVKALKQGVKNGTMPIIARFYGIIIKMFFNEHLPPHFHALYGEYNAIFNINTLEMIEGDMPLRARKLVVEWAENHQKELEIMWETKEFKQLPGLELEHHHHHH | not failed
MSDKPTIEQLLNNVSIESLNDMQEDSLAANAKASDVILLSPTGSGKTLGFLLPVFQQLSVSSNSIQALVLVPSRELALQIESVFKSLKTGFKVTCCYGGHPMDVEENNLAQSPALLIGTPGRIVDHINRRNINLDDVKTLVLDEFDKSLEMGFQEDMAIIIGRLTGIKKRILTSATQAIKIPDFTGMQSPVTLNYITGQASGLSVKTVLSDTKDKFDTLLRLLCQIGNESVIVFCNQRDEVENVCAYLTEHGIINNNFHGGLEQRYRESTLTKFRNGSTNVLVTTDLAARGLDIPDVKHVIHYQMPHKIDAFTHRNGRTARMGSTGNAYMLLHKDVLLPDYITSKPDILKLSDQKVKPLLPQWETLFISAGKKDKINKIDIVGFLSKKGLLEKDELGLIEVKDQFAYAAVKRNKVESVIKLVKEEKIKGRKVKIEVARETPKFEAE | failed
MEILVVAVGILVDRLTKIWALDKLKKVQDIPIIKNFFDLTYVENRGAAWGIFSGKTLVLSAVTLLVLSAIIVYMIKYRPKSKLARISLSLVISGALGNLYDRVFYKYVVDLFSLHYKDIYYYPVFNVADICVVVGTIMIAIFIVLKDDKKDGKV | failed
METVFALCAIMLLAFNLLGIVLAGWRLTRRDAENDLVRQKPPVSLVVPLRGVENFTPLTLSRAFGLDWPDYELLFCVADEFDPVIAEVRKAAAAFPSVSMQLLIGDDRVSANPKLNNCVKGWRAAKYEWVILADSNVLMPKSYIATMMSAWRPDSGLVCSPPLGSRPVGFWANVECAFLNGSQGRWQYAAEAIGIGFAQGKSMLWNKPFLEDRGGIRALAAEIAEDAASTKLVRSAGRKVHLVSAPFEQPLGQRHAGEIWSRQTRWARLRRVTFPQYFAPEILTGALPPLLFALAATAMMDVNLAATASVVLALMFGPELALAALNGWPVSLYTLPAMIARDLIMPVVWARSWIGSAVAWRGNVMTIGTAESTLAGPPAE | failed
MVQAWYMDESTADPRKPHRAQPDRPVSLEQLRTLGVLYWKLDADKYENDPELEKIRKMRNYSWMDIITICKDTLPNYEEKIKMFFEEHLHLDEEIRYILEGSGYFDVRDKEDKWIRISMEKGDMITLPAGIYHRFTLDEKNYVKAMRLFVGEPVWTPYNRPADHFDARVQYMSFLEGTA | not failed
MSKDEIKKPVVLIYCDTIEGTNIYLKKICEGLEEEGVPFQIQQVEKVEDSVEVLAQNASRNSNLGIGIGVLKNGDCALLQRRLPPNLPIQTLRGEKYDPNLYRNIGINAARLAKNLPLVFA | not failed
MAEVRQNPVVIVPGVLFWDSLYEVMREALSTWIPAEKIAIVPVNLLDWLGFPPSPERSTNRVMAALDRTVRAMASRFPGEPVTIVAHSGGGTVAMIYLLERPFQGDVYAVNGLVGRLVTLGTPFHTHEHFAKIKTDFIFKHLGPEFFQKYQVVSVVSNQYKGSLDGGMIEKMCYMFYRGVTDDGNLAGDGVVPARSCFLDGAKNVTILECEHLPAPHTKWYGTKDGVEQWIEWL | failed
MAQEEAGRLPQVLARVGTSHGITDLACKLRFYDDWAPEYDQDVAALKYRAPRLAVDCLSQALQGPPHDALILDVACGTGLVAVELQARGFLQVQGVDGSPEMLKQARARGLYHHLSLCTLGQEPLPYPKGTFDAVIIVGALSEGQVPCSAIPELLRVTKPGGLVCLTTRTNPSNLPYKEALEAALDSLEQAGAWERLVTQPVDHWELATSEQESGLATCANDGFISGVIYLYRKQETAQGERGRLSIQPLIDH | failed
MKWYEQPLHTLSHAQWEALCDGCGQCCLNQLLDEEDNLYSTDVACRLLDTKTASCSDYAHRSERVPACVTLTPDNLDEVYFMPASCAYRLRAEGQPLPQWHPLRHEGSKEPMKKAGYHVAGHCVSEAKFKGDLEDRIVTWPLS | failed
MLIKLTGGTVYDPANGIDGQVRNLFIRDGRIVHSLNGATPDQEYDLRGKVVMAGAIDMHTHIGGGKVTIARNLLPEDHRADPEPRRGLMRAGCGHAAPSTLTTGYRYAEMGYTAGFEPAVLPINARQAHMEMADVPLLDVGGYVMLGSDDFFLRLLSAGSDQKLINDYVAWTIRSAKAIGIKVVNPGGISAFKFNQRMLDLDEKHVYYGVTPRQILKSLARAVHELGVPHPLHVHGCNLGVPGNVETTLNTISGIEGLPMHLTHIQFHSYGVEGDRKFSSGAARIAEAINANKNITIDVGQILFGQTVTASGDSMRQHANAGHAHPDKWVCMDIECDAGCGVVPFKYRDKNFVNALQWCIGLETFLLIDDPWRVFLTTDHPNGAPFTTYPHLIRLLMDKSFRNDMLATINPEAAALSTLGSIDREYSLYEIAIMTRAGAARLLGLTDRGHLGAGAAADITVYTDQADKEKMFTRPDYVFKDGELVVRNGEVVKVVWGNLHTVQPEFDNGIEARLRDYFDRYHTMKLDNFVINDWEIEGDGRSKILVHPCHQGTRSLEHHHHHH | failed
